In this test the target is A. diaperinus cadherin-1 (AdCad1) (Alphitobius diaperinus). As to the kind of experiment: cell-based or functional assay.

For one substance, larval mortality on day 3, 100 ug/cm^2 Cry3Bb, larvae injected with AdCad1-dsRNA #1 (AdCad1 knocked down) and larval mortality on day 3, 100 ug/cm^2 Cry3Bb, larvae injected with AdCad1-dsRNA #2 (AdCad1 knocked down) results are on record in US10787678.

As to “Cry3Bb toxin (from UniProt Q06117 64-652)”, the larval mortality on day 3, 100 ug/cm^2 Cry3Bb, larvae injected with AdCad1-dsRNA #1 (AdCad1 knocked down) came to 8% and the larval mortality on day 3, 100 ug/cm^2 Cry3Bb, larvae injected with AdCad1-dsRNA #2 (AdCad1 knocked down) stood at 11%.
